In PMC4933246, “Alanine Expansions Associated with Congenital Central Hypoventilation Syndrome Impair PHOX2B Homeodomain-mediated Dimerization and Nuclear Import*”:

B1: PHOX2A promoter homeodomain binding site probe (dsDNA)
DNA 1: TCAGAGCGAATTGAATTAACTTCTTCACAC
DNA 2: GTGTGAAGAAGTTAATTCAATTCGCTCTGA
B2: ATTA 3-4 sites probe (dsDNA)
DNA 1: GGTGGTATTAAATTCTAATTAGAGATGCA
DNA 2: TGCATCTCTAATTAGAATTTAATACCACC
B3: PRS1 (dsDNA)
DNA 1: ATGTGTCATTAGTGCCAATTAGAGG
DNA 2: CCTCTAATTGGCACTAATGACACAT
B4: ATTA 2 site probe (dsDNA)
DNA 1: TAGTGTGATTGAATTAAAGGGCA
DNA 2: TGCCCTTTAATTCAATCACACTA

The binders below were run against PHOX2B WT (HA-tagged) (human, UniProt Q99453 1-314) (assay: EMSA; self-competition and anti-HA supershift; EMSA as previously described (refs 25, 28) with rabbit reticulocyte lysate proteins; buffer, salt, pH and temperature not given). Conditions: protein: ivt; tags: N-terminal HA; label: radiolabeled.
Sequence of PHOX2B WT (HA-tagged) (Q99453 whole entry): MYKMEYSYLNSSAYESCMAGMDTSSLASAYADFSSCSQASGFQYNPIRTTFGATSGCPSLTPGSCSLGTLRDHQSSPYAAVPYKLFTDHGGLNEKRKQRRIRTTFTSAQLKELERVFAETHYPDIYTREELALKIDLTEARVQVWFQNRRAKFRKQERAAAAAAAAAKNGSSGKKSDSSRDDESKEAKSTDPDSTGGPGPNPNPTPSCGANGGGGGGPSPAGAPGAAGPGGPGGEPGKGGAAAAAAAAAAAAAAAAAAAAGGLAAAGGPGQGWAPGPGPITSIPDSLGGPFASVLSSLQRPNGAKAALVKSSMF

Binding result, binds:
B1
B2
B3
B4
